How the values were obtained:
[1] = target: T1, human CD163 expressed on human myeloid cells (M2c macrophages, M2 macrophages, in vitro MDSCs) (human, UniProt Q86VB7 42-1114); assay: flow cytometry, AF647-conjugated AB102 on polarized M2c macrophages without siRNA
T1 construct: Endogenous CD163 on primary human monocyte-derived cells; also called huCD163; CD163^Hi cells
Procedure: The macrophage detachment solution was replaced with cold PBS−/− (PBS without calcium and magnesium; Hyclone No. SH30028.02) containing 0.2 mM EDTA and 0.1% HSA. The cells were spun down at 650×g for 5 min and then resuspended in 0.5 mL cold Block solution (FACS buffer+10% NGS+10 μg of human IgG Fc fragment protein (Abcam No. ab90285)) per million cells. The cells were counted and an average of 1×10⁶ per mL was used for further calculations. The cells were incubated at RT for 15 min (to increase FcR binding), followed by a 30 min incubation on ice for full blocking. An aliquot of unstained cells was set aside for compensation controls. e780 viability dye (ThermoFisher eBioscience No. 65-0865-18) was added to the remainder at a final dilution of 1:1000. Cells were aliquoted into 96-well plates (40 μL per well), and 10 μL of antibody solution was added to each well. Antibodies were prepared with a starting concentration of 100 μg/mL in FACS buffer and serially diluted in FACS buffer. After addition of antibodies, each set of cells was tested with an antibody panel (AB101 in FcNull framework conjugated to AF647 and commercial anti-CD163 conjugated to BV421 [BioLegend No. 333612]) and an isotype panel (ISO2 in FcNull framework conjugated to AF647 and commercial mIgG1 conjugated to BV421). […] Cells were then analyzed by flow cytometry on a BD Canto II machine.

[2] = target: T2, His-tagged recombinant human CD163 (R&D Systems, No. 1607-CD-050) (human, UniProt Q86VB7 46-1050); assay: ELISA, plate coated with 5 ug/mL His-tagged recombinant human CD163, HRP anti-human IgG F(ab')2, A450
T2 construct: Bought protein; also called huCD163; not shown: His tag
Procedure: AB101 binding to His-tagged recombinant human CD163 (R&D Systems, No. 1607-CD-050) and recombinant murine CD163 (R&D Systems, No. 7435-CD-050) proteins was determined using ELISA. Recombinant proteins were diluted in PBS to 5 μg/mL and added to 384-well High binding ELISA plates (Greiner Bio-One, No. 781061) at 25 μL per well and incubated at 4° C. overnight. The plates were washed three times with PBS, using the BioTek ELx405 Select microplate washer (wash program ELISA_384_PBS_3×_wash) and then blocked with 90 μL/well of blocking buffer (2% nonfat, dry milk/PBS+0.05% Tween 20) for 1 hr at RT.
After blocking, 25 μL per well of primary antibodies were added to the plates and incubated for 1 hr at room temp. The test antibody was AB101; the control anti-huCD163 antibody was a commercially available antibody in murine IgG1 framework (R&D Systems, #MAB1607); the isotype controls were a proprietary mAb, in human IgG1, human FcNull, and murine IgG1 frameworks, with known specificity. After primary antibody binding, plates were washed three times with PBS using the EL405× (wash program ELISA_384_PBS_3×_wash). […] After development, the reaction was stopped by adding 25 μL per well of 0.3 M HCl and plates were read using the SpectraMax M5e instrument at 450 nm.

T1 sequence (Q86VB7 other isoform, or with tags, fused parts or gaps limits assumed): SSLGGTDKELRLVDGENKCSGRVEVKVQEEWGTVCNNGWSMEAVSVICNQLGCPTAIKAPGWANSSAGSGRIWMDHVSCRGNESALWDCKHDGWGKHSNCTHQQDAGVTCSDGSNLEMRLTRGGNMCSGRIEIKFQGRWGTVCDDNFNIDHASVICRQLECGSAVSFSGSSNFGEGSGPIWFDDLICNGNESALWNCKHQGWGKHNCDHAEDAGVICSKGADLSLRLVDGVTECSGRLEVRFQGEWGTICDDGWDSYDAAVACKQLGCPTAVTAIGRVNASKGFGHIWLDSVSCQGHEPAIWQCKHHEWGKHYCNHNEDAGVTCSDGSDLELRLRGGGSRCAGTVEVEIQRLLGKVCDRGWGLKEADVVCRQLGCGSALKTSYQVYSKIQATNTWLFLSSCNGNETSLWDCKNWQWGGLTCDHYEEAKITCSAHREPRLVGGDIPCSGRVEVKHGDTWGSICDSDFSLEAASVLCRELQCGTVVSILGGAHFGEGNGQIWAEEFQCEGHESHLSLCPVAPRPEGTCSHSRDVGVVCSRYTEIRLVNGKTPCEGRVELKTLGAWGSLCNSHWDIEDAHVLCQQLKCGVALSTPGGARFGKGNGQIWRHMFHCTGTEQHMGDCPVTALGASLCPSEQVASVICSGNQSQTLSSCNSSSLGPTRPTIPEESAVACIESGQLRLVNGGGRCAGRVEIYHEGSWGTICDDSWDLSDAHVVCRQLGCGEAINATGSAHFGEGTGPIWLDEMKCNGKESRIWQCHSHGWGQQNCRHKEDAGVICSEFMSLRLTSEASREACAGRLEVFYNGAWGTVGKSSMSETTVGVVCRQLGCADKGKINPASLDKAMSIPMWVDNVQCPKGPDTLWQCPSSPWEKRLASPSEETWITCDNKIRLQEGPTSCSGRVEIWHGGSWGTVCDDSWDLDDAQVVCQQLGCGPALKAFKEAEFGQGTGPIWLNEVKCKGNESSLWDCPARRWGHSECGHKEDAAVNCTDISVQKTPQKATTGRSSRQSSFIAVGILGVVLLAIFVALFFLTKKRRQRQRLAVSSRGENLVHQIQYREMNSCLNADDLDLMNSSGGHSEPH
T2 sequence (Q86VB7 46-1050 limits assumed): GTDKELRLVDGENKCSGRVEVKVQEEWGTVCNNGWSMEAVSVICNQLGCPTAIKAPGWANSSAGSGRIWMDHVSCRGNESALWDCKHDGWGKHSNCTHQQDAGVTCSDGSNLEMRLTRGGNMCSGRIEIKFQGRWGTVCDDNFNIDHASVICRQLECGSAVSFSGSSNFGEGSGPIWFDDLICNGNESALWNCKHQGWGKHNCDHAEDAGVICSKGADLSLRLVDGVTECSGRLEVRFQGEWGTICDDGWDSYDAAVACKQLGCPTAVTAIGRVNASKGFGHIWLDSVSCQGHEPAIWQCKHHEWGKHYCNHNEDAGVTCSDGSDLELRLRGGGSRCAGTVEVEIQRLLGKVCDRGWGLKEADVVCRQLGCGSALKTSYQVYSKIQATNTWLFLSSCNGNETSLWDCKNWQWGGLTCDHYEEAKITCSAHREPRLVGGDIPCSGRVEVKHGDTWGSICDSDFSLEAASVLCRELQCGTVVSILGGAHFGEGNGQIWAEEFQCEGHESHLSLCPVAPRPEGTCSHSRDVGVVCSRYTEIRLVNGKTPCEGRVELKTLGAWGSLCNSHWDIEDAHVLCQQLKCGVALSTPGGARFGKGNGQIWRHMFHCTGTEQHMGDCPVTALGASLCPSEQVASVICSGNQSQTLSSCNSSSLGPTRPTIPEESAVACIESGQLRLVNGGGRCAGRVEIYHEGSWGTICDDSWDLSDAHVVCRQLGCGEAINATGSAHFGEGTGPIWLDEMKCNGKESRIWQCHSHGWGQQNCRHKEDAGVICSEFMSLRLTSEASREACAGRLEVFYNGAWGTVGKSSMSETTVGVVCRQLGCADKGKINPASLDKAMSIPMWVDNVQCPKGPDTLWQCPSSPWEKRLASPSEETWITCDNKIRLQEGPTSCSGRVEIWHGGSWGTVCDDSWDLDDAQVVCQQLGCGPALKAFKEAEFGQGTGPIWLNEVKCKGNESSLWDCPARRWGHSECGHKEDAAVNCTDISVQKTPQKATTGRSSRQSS

B1: AB102 (antibody, human IgG1, kappa)
light: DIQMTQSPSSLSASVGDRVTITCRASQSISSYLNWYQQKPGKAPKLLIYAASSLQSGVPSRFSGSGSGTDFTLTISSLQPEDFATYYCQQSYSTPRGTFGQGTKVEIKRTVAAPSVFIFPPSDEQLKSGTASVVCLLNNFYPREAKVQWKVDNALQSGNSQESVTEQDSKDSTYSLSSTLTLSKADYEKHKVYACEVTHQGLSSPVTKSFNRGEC
heavy: EVQLVESGGGVVQPGRSLRLSCAASGFTFSSYAMHWVRQAPGKGLEWVAVISYDGSNKYYADSVKGRFTISRDNSKNTLYLQMNSLRAEDTAVYYCARENVRPYYDFWSGYYSEYYYYGMDVWGQGTTVTVSSASTKGPSVFPLAPSSKSTSGGTAALGCLVKDYFPEPVTVSWNSGALTSGVHTFPAVLQSSGLYSLSSVVTVPSSSLGTQTYICNVNHKPSNTKVDKRVEPKSCDKTHTCPPCPAPEFEGGPSVFLFPPKPKDTLMISRTPEVTCVVVDVSHEDPEVKFNWYVDGVEVHNAKTKPREEQYNSTYRVVSVLTVLHQDWLNGKEYKCKVSNKALPASIEKTISKAKGQPREPQVYTLPPSREEMTKNQVSLTCLVKGFYPSDIAVEWESNGQPENNYKTTPPVLDSDGSFFLYSKLTVDKSRWQQGNVFSCSVMHEALHNHYTQKSLSLSPGK
notes: Biotinylated for the PFA immunoprecipitation and AF647 conjugated for flow cytometry; also called AB101 FcNull antibody; AB101 in FcNull framework; copies: 2 + 2
EC50 (read off the curve) [1]: ~10 nM | EC50 (read off the curve) [2]: ~1 nM
